Target: T1, YTH-YPet (UniProt Q9Y5A9 380-579)
T1 sequence: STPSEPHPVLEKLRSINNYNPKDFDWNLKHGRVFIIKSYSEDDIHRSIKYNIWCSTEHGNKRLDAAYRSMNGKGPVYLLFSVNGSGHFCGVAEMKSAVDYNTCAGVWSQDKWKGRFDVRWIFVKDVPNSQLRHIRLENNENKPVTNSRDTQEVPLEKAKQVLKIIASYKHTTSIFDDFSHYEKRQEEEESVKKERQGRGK
Experiment: EMSA

B1: aRNA (structured_RNA)
RNA: CCGGACUGUACAUGAGGAUCACCCAUGU
B1: no binding.

From publication PMC11566999
